The results in this text go back to paper PMC5566498, “SIRT7 antagonizes TGF-β signaling and inhibits breast cancer metastasis” (Nature Communications, 2017).

The experiment addresses T1, 6× His-tagged SMAD4 (UniProt Q13485 1-552).
T1 construct: SMAD4; also called 6× His-SMAD4; source: purified from bacterial culture
T1 sequence (looked up): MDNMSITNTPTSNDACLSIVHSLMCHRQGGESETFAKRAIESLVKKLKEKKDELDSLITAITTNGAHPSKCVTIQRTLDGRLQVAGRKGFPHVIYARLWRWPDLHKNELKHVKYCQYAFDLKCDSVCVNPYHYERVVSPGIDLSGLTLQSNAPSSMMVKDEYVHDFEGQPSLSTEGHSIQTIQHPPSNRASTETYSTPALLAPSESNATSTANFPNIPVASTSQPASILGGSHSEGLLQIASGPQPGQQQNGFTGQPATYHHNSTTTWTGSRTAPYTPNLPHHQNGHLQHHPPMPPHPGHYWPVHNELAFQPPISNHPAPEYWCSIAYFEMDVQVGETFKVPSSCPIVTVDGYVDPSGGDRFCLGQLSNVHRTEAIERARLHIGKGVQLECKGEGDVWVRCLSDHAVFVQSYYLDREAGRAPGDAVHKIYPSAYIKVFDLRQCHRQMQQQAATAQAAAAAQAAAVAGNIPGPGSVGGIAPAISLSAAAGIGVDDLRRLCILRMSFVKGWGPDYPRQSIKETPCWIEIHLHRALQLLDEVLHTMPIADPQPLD
Nature of the experiment: pull-down; 1 µg GST-SIRT7 on Glutathione-Sepharose 4B, incubated with 6× His-SMAD4 for 2 h at 4 °C in 120 mM KCl, 20 mM Tris-HCl pH 7.9, 5 mM MgCl2, 0.2 mM EDTA, 10% glycerol, 0.2% NP-40; immunoblot. To be noted: both partners purified.

B1: GST-SIRT7 (enzyme, UniProt Q9NRC8 1-400, looked up)
chain: MAAGGLSRSERKAAERVRRLREEQQRERLRQVSRILRKAAAERSAEEGRLLAESADLVTELQGRSRRREGLKRRQEEVCDDPEELRGKVRELASAVRNAKYLVVYTGAGISTAASIPDYRGPNGVWTLLQKGRSVSAADLSEAEPTLTHMSITRLHEQKLVQHVVSQNCDGLHLRSGLPRTAISELHGNMYIEVCTSCVPNREYVRVFDVTERTALHRHQTGRTCHKCGTQLRDTIVHFGERGTLGQPLNWEAATEAASRADTILCLGSSLKVLKKYPRLWCMTKPPSRRPKLYIVNLQWTPKDDWAALKLHGKCDDVMRLLMAELGLEIPAYSRWQDPIFSLATPLRAGEEGSHSRKSLCRSREEAPPGDRGAPLSSAPILGGWFGRGCTKRTKRKKVT
notes: SIRT7; also called purified GST-SIRT7; recombinant GST-SIRT7; source: recombinant, purified
For B1, the binding result is “binds”.
